Laboratory results: PMC6220978, “Induced conformational changes activate the peptidoglycan synthase PBP1B” (Molecular Microbiology, 2018)

Key:
Details in all cases: both partners purified
PBP1B D160C/K437C = target: T1, PBP1B D160C/K437C (E. coli, UniProt P02919 46-844, D160C | K437C); test: SPR; reducing conditions: 2 mM TCEP in the SPR running buffer, immobilised PBP1B versions incubated in it for 30 min before the assay; LpoB injected from 19.5 nM to 10 μM; apparent KD
T1 construct: PBP1B, E. coli, residues 46-844, made by mutagenesis of pDML924; Disulphide bridge between C160 and C437 (no free thiol groups detected); reduced in the SPR assay with 2 mM TCEP; source: E. coli BL21(DE3), purified (membrane extract, HisTrap, thrombin, HiTrap SP ion exchange)
T1 sequence (looked up): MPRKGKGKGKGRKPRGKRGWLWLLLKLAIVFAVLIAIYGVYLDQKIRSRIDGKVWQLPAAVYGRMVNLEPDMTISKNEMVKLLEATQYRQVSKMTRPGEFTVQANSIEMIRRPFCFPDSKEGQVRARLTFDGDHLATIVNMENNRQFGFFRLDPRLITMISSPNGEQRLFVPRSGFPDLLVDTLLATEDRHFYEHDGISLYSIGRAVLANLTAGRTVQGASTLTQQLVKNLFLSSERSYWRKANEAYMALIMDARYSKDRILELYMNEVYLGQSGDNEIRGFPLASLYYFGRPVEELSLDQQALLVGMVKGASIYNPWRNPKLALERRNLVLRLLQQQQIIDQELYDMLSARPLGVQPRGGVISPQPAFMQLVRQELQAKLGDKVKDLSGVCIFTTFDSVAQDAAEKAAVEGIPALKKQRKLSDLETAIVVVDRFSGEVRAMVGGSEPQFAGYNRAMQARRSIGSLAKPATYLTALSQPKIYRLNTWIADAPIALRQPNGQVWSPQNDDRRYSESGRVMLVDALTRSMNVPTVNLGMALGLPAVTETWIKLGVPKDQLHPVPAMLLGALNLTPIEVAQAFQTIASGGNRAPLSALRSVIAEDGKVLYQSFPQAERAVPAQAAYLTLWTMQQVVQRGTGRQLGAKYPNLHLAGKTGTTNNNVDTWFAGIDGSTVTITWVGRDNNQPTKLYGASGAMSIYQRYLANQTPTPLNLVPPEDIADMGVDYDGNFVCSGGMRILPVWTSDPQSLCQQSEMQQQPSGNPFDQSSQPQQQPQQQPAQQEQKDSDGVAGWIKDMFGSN

PBP1B^Δ158–160 = target: T2, PBP1B^Δ158–160 (E. coli, UniProt P02919 46-844, Δ158–160); test: as above
T2 construct: PBP1B, E. coli, residues 46-844 with residues 158-160 of Loop 1 removed, made by mutagenesis of pDML924; also called Loop 1 truncation; source: E. coli BL21(DE3), purified (membrane extract, HisTrap, thrombin, HiTrap SP ion exchange)
T2 sequence (looked up): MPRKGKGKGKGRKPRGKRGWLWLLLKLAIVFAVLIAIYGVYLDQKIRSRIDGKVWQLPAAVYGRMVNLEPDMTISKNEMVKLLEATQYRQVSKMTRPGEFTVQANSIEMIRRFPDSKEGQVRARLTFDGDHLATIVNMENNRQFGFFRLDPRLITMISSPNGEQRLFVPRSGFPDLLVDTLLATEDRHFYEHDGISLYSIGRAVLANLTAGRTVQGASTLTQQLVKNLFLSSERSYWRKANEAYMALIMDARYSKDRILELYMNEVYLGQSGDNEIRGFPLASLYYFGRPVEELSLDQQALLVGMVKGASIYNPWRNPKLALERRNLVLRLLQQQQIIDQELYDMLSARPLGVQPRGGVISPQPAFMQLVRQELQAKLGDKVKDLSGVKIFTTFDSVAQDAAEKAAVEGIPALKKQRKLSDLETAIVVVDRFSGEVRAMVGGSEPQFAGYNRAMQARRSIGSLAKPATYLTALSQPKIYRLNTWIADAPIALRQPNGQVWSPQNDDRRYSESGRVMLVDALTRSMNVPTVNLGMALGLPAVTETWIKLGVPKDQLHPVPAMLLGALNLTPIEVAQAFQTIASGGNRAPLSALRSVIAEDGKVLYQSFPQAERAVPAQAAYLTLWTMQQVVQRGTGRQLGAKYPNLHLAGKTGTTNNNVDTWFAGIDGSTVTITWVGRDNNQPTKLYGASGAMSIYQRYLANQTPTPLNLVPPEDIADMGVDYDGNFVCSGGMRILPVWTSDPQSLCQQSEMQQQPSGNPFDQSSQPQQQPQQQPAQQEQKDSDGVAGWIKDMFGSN

PBP1B E341A = target: T3, PBP1B E341A (E. coli, UniProt P02919 46-844, E341A); test: SPR; PBP1B versions immobilised to the chip surface; LpoB injected from 19.5 nM to 10 μM; apparent KD by non-linear regression, at least three independent experiments
T3 construct: PBP1B, E. coli, residues 46-844, made by mutagenesis of pDML924; source: E. coli BL21(DE3), purified (membrane extract, HisTrap, thrombin, HiTrap SP ion exchange)
T3 sequence (looked up): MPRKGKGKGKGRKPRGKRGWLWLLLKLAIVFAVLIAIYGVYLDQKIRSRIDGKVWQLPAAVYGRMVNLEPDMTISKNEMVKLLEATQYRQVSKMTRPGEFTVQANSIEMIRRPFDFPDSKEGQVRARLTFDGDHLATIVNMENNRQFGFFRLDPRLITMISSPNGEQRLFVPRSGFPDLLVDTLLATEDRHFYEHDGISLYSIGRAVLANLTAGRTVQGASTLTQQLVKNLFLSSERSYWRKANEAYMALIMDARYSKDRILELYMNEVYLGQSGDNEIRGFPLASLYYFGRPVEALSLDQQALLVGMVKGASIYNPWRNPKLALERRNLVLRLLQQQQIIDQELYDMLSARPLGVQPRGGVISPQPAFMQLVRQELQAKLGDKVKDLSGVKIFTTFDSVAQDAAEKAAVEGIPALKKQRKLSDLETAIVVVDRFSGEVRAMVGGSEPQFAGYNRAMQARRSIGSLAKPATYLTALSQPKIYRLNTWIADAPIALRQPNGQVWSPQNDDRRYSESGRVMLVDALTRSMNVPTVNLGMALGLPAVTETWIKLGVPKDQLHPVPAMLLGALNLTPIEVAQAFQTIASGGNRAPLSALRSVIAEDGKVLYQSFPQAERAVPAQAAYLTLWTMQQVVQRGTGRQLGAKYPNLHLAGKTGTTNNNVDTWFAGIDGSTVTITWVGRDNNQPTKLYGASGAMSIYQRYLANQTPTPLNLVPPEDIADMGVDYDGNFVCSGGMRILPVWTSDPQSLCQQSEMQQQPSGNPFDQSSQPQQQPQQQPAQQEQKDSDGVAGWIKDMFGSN

B1: LpoB (natural protein, E. coli)
chain: VGQREPAPVEEVKPAPEQPAEPQQPVPTVPSVPTIPQQPGPIEHEDQTAPPAPHIRHYDWNGAMQPMVSKMLGADGVTAGSVLLVDSVNNRTNGSLNAAEATETLRNALANNGKFTLVSAQQLSMAKQQLGLSPQDSLGTRSKAIGIARNVGAHYVLYSSASGNVNAPTLQMQLMLVQTGEIIWSGKGAVSQQ
notes: LpoB, E. coli; also called lipoprotein LpoB; source: E. coli BL21(DE3), purified (HisTrap, Superdex 200), as in Egan et al. 2014
For B1, the Kd (PBP1B D160C/K437C) was 2040 nM, the Kd (PBP1B^Δ158–160) was 1700 nM and the Kd (PBP1B E341A) was 273 nM.
